Values belong to the molecule of their own block, whether it stands above or below them.
Experiments:
mouse claudin-1 = biological target: T1, mouse claudin-1 (Mus musculus, UniProt O88551); assay: In vitro immunofluorescence of NP binding in bEnd.3 cells (control and ethanol induced); format: cell-based; details: 4 hrs
T1 construct: These cells were subjected to ethanol (50 mM) treatment to induce claudin-1 expression; endogenous in cells; host or cells: bEnd.3 mouse brain microvascular endothelial cells
T1 sequence (O88551 1-211): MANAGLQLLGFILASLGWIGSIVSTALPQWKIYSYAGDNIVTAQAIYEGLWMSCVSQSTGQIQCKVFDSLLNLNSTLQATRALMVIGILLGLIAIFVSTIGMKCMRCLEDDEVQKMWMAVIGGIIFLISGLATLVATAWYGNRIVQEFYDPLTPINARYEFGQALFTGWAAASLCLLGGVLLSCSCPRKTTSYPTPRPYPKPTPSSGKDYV
Description: (§1) bEnd.3 cells were cultured according to the ATCC culture conditions in DMEM. These cells were subjected to ethanol (50 mM) treatment to induce claudin-1 expression and incubated with C1C2-NP for 4 hrs. For determining attachment of the C1C2-NP to human claudin-1, human claudin-1 encoded PCMV script plasmid was overexpressed in bEnd.3 cells and then incubated with C1C2-NP for 4 hrs.

[1] = MST check of non-specific binding to detergent micelles; details: NP fixed at 1 μM, β-DDM varied; data not shown
Description: Human claudin-1 was expressed and purified as reported previously (Vecchio & Stroud, 2019, PNAS USA, 116:17817-24). MST measurements were performed using a Monolith instrument (NanoTemper Technologies). For experiments with human claudin-1, the assay buffer contained 10 mM Tris HCl, pH 8.0, 100 mM NaCl, 4% glycerol, and 0.04% n-Dodecyl-β-D-Maltopyranoside (β-DDM). NPs and peptides were labeled with AF647 prior to MST analysis as described above. For the binding experiments, the concentration of human claudin-1 was varied from 2.2-73,500 nM and the AF647-labeled C1C2-NP was fixed at 70 nM, while the AF647 labeled NPs and AF647 labeled C1C2 peptide were fixed at 1 and 0.3 μM, respectively. Binding of the AF647 labeled C1C2-NP to human claudin-3, -4, and -9 were tested using 0.4-14000 nM, 0.8-28000 nM, and 0.6-20000 nM, respectively; with the AF647 labeled C1C2-NP fixed at 70 nM. This assay buffer was similar, except β-DDM was replaced with 0.1% n-Undecyl-β-D-Maltopyranoside (beta-UDM). […] All experiments were conducted at 23° C. using the nano-red channel of the Monolith instrument and the data were analyzed by using either Monolith analysis software or Graph Pad Prism, version 9 (Graph Pad Software, San Diego, California).

claudin-1 = biological target: T2, claudin-1 (Mus musculus, UniProt O88551); details: corpus callosum and hippocampus, in vivo
T2 sequence (O88551 1-211): T1 sequence (O88551 1-211)
Description: A fluorescence microscope (LSM800, Zeiss) was used to take the fluorescence image of mice brain. Mice were transcardially perfused after 2 h of MRI with 4% paraformaldehyde (PFA) in Dulbecco's phosphate-buffered saline (DPBS, Thermo Fisher Scientific, Waltham, MA). Brain tissue was collected, trimmed, and fixed in 4% buffered PFA for 24 h. The brains were moved into 30% sucrose in DPBS for 3 d at 4° C. for cryoprotection. The brains were then embedded in 2.6% carboxymethylcellulose (CMC, C4888, Sigma-Aldrich, St. Louis, MO), frozen on dry ice, and sliced coronally at a 15 μm thickness with cryotome (Leica Biosystems, Wetzlar, Germany). The brain slices were laid on poly-L-lysine coated microscope slides (Thermo Fisher Scientific) and dried overnight at RT. […]
Images were acquired with confocal microscopy at 40× objective lens magnification. Quantitative image analysis was performed with ImageJ software on at least two randomly selected viewing fields for each region for each mouse. The fluorescence signal of claudin-1 was thresholded to only integrate the density above 20 to remove the background fluorescence. Gamma correction was performed only on the representative images after the immunofluorescence quantification with shadows value of 0, midtones value of 0.26, and highlights value of 100 for all CMYK channels with Adobe Photoshop.

human claudin-1 = biological target: T3, human claudin-1 (Homo sapiens, UniProt O95832); assay: In vitro immunofluorescence of NP binding in bEnd.3 cells transfected with human claudin-1 plasmid; format: cell-based; details: cells transfected to express human claudin-1; 4 hrs
T3 construct: made in house
T3 sequence (O95832 1-211): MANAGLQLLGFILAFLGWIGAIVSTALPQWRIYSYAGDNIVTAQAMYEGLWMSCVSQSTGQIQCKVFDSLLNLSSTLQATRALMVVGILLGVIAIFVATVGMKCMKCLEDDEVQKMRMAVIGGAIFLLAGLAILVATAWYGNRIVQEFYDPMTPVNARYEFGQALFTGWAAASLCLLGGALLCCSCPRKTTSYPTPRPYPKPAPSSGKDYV
Description: as §1

[2] = biological target: T4, recombinant human claudin-1 (human, UniProt O95832 1-211, limits assumed); assay: microscale thermophoresis, AF647 labeled C1C2-NP fixed at 70 nM, human claudin-1 titrated 2.2-73,500 nM
T4 construct: Expressed and purified as in Vecchio & Stroud 2019, in beta-DDM detergent; also called CLDN1
T4 sequence: T3 sequence (O95832 1-211)
Description: For the binding experiments, the concentration of human claudin-1 was varied from 2.2-73,500 nM and the AF647-labeled C1C2-NP was fixed at 70 nM, while the AF647 labeled NPs and AF647 labeled C1C2 peptide were fixed at 1 and 0.3 μM, respectively. Binding of the AF647 labeled C1C2-NP to human claudin-3, -4, and -9 were tested using 0.4-14000 nM, 0.8-28000 nM, and 0.6-20000 nM, respectively; with the AF647 labeled C1C2-NP fixed at 70 nM. This assay buffer was similar, except β-DDM was replaced with 0.1% n-Undecyl-β-D-Maltopyranoside (beta-UDM). In order to check non-specific binding of β-DDM micelles to the AF647 labeled C1C2-NP, the concentration of beta-DDM was varied from 0.03-900 μM and the concentration of the AF647-labeled C1C2-NP was fixed at 1 μM. A similar experiment was performed wherein the concentration of beta-UDM was varied from 0.3-10,000 μM and the concentration of AF647-labeled control NP was fixed at 1 μM. […] All experiments were conducted at 23° C. using the nano-red channel of the Monolith instrument and the data were analyzed by using either Monolith analysis software or Graph Pad Prism, version 9 (Graph Pad Software, San Diego, California).
To assess the binding affinity of C1C2-NPs to human claudin-1, C1C2-NPs were labeled with AF647 and binding to recombinant human claudin-1 quantified using MST. […]

Binding to bEnd.3 cells (mouse claudin-1; claudin-1 induced by ethanol (50 mM)): much higher binding
Binding to bEnd.3 cells (mouse claudin-1; control cells, low claudin-1 expression): no binding
Non-specific binding to β-DDM micelle [1]: No significant binding
Localization relative to claudin-1 immunofluorescence staining (claudin-1): co-localize
Binding to bEnd.3 cells (human claudin-1): High NP binding
Molecule: C1C2-NP: PEG diacid coated ultrasmall Gd NP conjugated with C1C2 peptide SSVSQSTGQIQSKVDSLLNLNSTQATR (SEQ ID NO: 6); claudin-1 targeted (Ac-SSVSQSTGQIQSKVDSLLNLNSTQATR-NH2; also: conjugated to PEG diacid coated ultrasmall Gd nanoparticle)

Kd [2]: 21 µM
B1: C1C2-NP (C1C2 peptide conjugated to PEG diacid coated ultrasmall Gd nanoparticles) (peptide)
peptide: Ac-SSVSQSTGQIQSKVDSLLNLNSTQATR-NH2
modifications: not fully specified; also: conjugated by EDC-NHS chemistry to PEG diacid on Gd oxide nanoparticle surface (19 peptides per 3.5 nm particle)
notes: The protein part is the C1C2 peptide; the core is not a protein; also called C1C2-NPs; C1C2 NPs
